Results from publication PMC6244167.

How the values were obtained:
[1] = biological target: vasoinhibin of 79 residues (first 79 residues of human PRL) (human); assay: non-reducing Western blot; conditioned media of transduced HEK293T/17 cells run without reduction and immunoblotted for PRL; disulfide-bonded dimers seen as bands of ~18 kDa and ~28 kDa
[2] = biological target: vasoinhibin of 123 residues (first 123 residues of human PRL) (human); assay: as above

| Substance | stoichiometry N [1] | stoichiometry N [2] |
| --- | --- | --- |
| vasoinhibin of 79 residues (first 79 residues of human PRL) (domain or fragment) | 2 | – |
| vasoinhibin of 123 residues (first 123 residues of human PRL) (domain or fragment) | – | 2 |
